Columns and labels:
MBP-XB3 = test system: T1, MBP-XB3
T1 sequence: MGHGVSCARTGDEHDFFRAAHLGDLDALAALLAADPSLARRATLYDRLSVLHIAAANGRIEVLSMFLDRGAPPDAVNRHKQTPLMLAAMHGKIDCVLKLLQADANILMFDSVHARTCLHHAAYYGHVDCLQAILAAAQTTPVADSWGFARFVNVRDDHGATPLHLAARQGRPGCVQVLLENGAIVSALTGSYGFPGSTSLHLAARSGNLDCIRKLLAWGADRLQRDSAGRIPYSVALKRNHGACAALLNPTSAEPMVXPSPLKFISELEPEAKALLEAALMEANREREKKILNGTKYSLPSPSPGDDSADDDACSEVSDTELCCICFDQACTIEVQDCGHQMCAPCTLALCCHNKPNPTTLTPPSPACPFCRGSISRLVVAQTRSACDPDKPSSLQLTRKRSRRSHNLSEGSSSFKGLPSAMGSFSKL

In the case of GST-XA21, the “transphosphorylation assay with [gamma-32P]ATP” value (MBP-XB3) is reported as “GST-XA21 phosphorylated itself and MBP-XB3, but not MBP alone” and the “transphosphorylation assay with [gamma-32P]ATP” value (Native MBP [MBP: P0AEX9]) is reported as “GST-XA21 phosphorylated itself and MBP-XB3, but not MBP alone”.

Source: US6750057
